Reference: patent US20170342349A1, “STABILIZED ENZYME COMPOSITIONS” (NOVOZYMES A/S, priority 2014, published 2017)

Experiments:
[1] = target: Protease C (SEQ ID NO 6) variant N60A (Lederbergia lenta (Bacillus lentus)) (UniProt P29600); assay: Ki fitted from Suc-AAPF-pNA activity in Model B detergent; IF relative to SEQ ID NO 6
[2] = target: Protease C (SEQ ID NO 6) variant Y166F (Lederbergia lenta (Bacillus lentus)) (UniProt P29600); assay: as above
[3] = target: TY145 (SEQ ID NO 3) variant I150N + S173P + S175P + F180Y; assay: Ki fitted from Suc-AAPF-pNA activity in Model B detergent; IF relative to SEQ ID NO 3 comprising S173P + S175P + F180Y
[4] = target: TY145 (SEQ ID NO 3) variant I150S + S173P + S175P + F180Y; assay: as above
[5] = target: TY145 (SEQ ID NO 3) variant I150T + S173P + S175P + F180Y; assay: as above
[6] = target: TY145 (SEQ ID NO 3) variant I150V + S173P + S175P + F180Y; assay: as above
[7] = target: TY145 (SEQ ID NO 3) variant K146A + S173P + S175P + F180Y; assay: as above
[8] = target: TY145 (SEQ ID NO 3) variant K146F + S173P + S175P + F180Y; assay: as above
[9] = target: TY145 (SEQ ID NO 3) variant K146N + S173P + S175P + F180Y; assay: as above
[10] = target: TY145 (SEQ ID NO 3) variant K146S + S173P + S175P + F180Y; assay: as above
[11] = target: TY145 (SEQ ID NO 3) variant K146T + S173P + S175P + F180Y; assay: as above
[12] = target: TY145 (SEQ ID NO 3) variant K146W + S173P + S175P + F180Y; assay: as above
[13] = target: TY145 (SEQ ID NO 3) variant Q70A + S173P + S175P + F180Y; assay: as above
[14] = target: TY145 (SEQ ID NO 3) variant Q70F + S173P + S175P + F180Y; assay: as above
[15] = target: TY145 (SEQ ID NO 3) variant Q70H + S173P + S175P + F180Y; assay: as above
[16] = target: TY145 (SEQ ID NO 3) variant S111I + S173P + S175P + F180Y; assay: as above
[17] = target: TY145 (SEQ ID NO 3) variant S114A + S173P + S175P + F180Y; assay: as above
[18] = target: TY145 (SEQ ID NO 3) variant S173P + S175P + F180Y + G182A; assay: as above
[19] = target: TY145 (SEQ ID NO 3) variant S173P + S175P + F180Y + L184H; assay: as above
[20] = target: TY145 (SEQ ID NO 3) variant S173P + S175P + F180Y + L184Y; assay: as above
[21] = target: TY145 (SEQ ID NO 3) variant S173P + S175P + I178F + F180Y; assay: as above
[22] = target: TY145 (SEQ ID NO 3) variant S173P + S175P + I178P + F180Y; assay: as above

TY145 (SEQ ID NO 3) variant I150T + S173P + S175P + F180Y, sequence (chain, as listed by the source I150T S173P S175P F180Y I150T S173P S175P F180Y limits assumed): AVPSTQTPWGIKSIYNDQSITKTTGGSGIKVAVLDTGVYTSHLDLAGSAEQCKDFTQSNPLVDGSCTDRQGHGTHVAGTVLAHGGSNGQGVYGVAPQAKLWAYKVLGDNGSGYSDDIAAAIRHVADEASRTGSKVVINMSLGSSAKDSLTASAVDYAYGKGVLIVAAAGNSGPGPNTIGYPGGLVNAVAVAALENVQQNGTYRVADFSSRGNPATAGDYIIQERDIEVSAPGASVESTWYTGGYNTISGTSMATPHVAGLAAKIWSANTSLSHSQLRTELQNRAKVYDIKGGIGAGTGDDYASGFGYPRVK
TY145 (SEQ ID NO 3) variant Q70H + S173P + S175P + F180Y, sequence (chain, as listed by the source Q70H S173P S175P F180Y Q70H S173P S175P F180Y limits assumed): as the sequence (chain, as listed by the source I150T S173P S175P F180Y I150T S173P S175P F180Y limits assumed) above, with Q70H, T150I counted along it
TY145 (SEQ ID NO 3) variant Q70F + S173P + S175P + F180Y, sequence (chain, as listed by the source Q70F S173P S175P F180Y Q70F S173P S175P F180Y limits assumed): as the sequence (chain, as listed by the source I150T S173P S175P F180Y I150T S173P S175P F180Y limits assumed) above, with Q70F, T150I counted along it

## Inhibitor 1: Cbz-Gly-Ala-NHCH(CH2C6H4pOH)C(OH)(SO3Na)-H (peptide)
[1]
  IF (binding constant improvement factor, relative Ki): 1.22
[2]
  IF (binding constant improvement factor, relative Ki): 1.31
[3]
  IF (binding constant improvement factor, relative Ki): 3.58
[4]
  IF (binding constant improvement factor, relative Ki): 5.7
[5]
  IF (binding constant improvement factor, relative Ki): 4.15
[6]
  IF (binding constant improvement factor, relative Ki): 1.8
[7]
  IF (binding constant improvement factor, relative Ki): 3.72
[8]
  IF (binding constant improvement factor, relative Ki): 5.17
[9]
  IF (binding constant improvement factor, relative Ki): 1.36
[10]
  IF (binding constant improvement factor, relative Ki): 1.13
[11]
  IF (binding constant improvement factor, relative Ki): 15.9
[12]
  IF (binding constant improvement factor, relative Ki): 5.47
[13]
  IF (binding constant improvement factor, relative Ki): 4.13
[14]
  IF (binding constant improvement factor, relative Ki): 11.8
[15]
  IF (binding constant improvement factor, relative Ki): 3.78
[16]
  IF (binding constant improvement factor, relative Ki): 1.12
[17]
  IF (binding constant improvement factor, relative Ki): 3.33
[18]
  IF (binding constant improvement factor, relative Ki): 2.49
[19]
  IF (binding constant improvement factor, relative Ki): 2.5
[20]
  IF (binding constant improvement factor, relative Ki): 3.91
[21]
  IF (binding constant improvement factor, relative Ki): 2.34
[22]
  IF (binding constant improvement factor, relative Ki): 2.22
